In this test the target is PpFtsZ2-1-CFP fusion protein (Physcomitrella patens). Briefly: FRET by acceptor photobleaching, confocal microscopy, cotransfected Physcomitrella protoplasts (FtsZ2-1-CFP donor, FtsZ1-1-YFP acceptor).

As to PpFtsZ1-1-YFP fusion protein, the FRET efficiency worked out at 36.5%.

The values above are taken from patent US20060058189A1.
